The record followed here is patent US20230338424A1 (LENTIGEN TECHNOLOGY, published 2023).

T1: recombinant human CD123-Fc (human, UniProt P26951 19-305, limits assumed)
T1 construct: Treated as one molecule; also called CD123-Fc peptide (Novoprotein); recombinant IL3R-alpha Fc-tagged; not shown: Fc tag
T1 sequence (looked up): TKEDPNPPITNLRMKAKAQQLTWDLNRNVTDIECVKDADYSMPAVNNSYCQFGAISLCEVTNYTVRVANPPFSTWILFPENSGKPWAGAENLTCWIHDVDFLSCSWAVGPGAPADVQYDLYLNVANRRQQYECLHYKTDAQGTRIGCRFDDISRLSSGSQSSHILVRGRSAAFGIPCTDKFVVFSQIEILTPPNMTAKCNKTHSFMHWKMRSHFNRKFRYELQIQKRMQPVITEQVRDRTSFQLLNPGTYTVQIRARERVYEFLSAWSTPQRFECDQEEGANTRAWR

B1: CAR LTG2078 CD123 M12306 CD8 BBz (other)
chain: EVQLVQSGSELKKPGASVKVSCKASGGTFSSYAISWVRQAPGQGLEWMGGIIPIFGTANYAQKFQGRVTITADESTSTAYMELSSLRSEDTAVYYCASTARRGWDTAGPLDYWGQGTLVTVSSGGGGSGGGGSGGGGSDIQMTQSPSSLSASVGDRVTIACRASQTISRYLNWYQQKPGKAPKLLIYAASSLQSGVSSRFSGSGSGTEFTLTISSLQPEDFATYFCQQTYSPPITFGQGTRLEIKAAATTTPAPRPPTPAPTIASQPLSLRPEACRPAAGGAVHTRGLDFACDIYIWAPLAGTCGVLLLSLVITLYCKRGRKKLLYIFKQPFMRPVQTTQEEDGCSCRFPEEEEGGCELRVKFSRSADAPAYQQGQNQLYNELNLGRREEYDVLDKRRGRDPEMGGKPRRKNPQEGLYNELQKDKMAEAYSEIGMKGERRRGKGHDGLYQGLSTATKDTYDALHMQALPPR
notes: Control chimeric antigen receptor on transduced human primary T cells; Leader (residues 1-22) left out; also called EF-1a CD123 CD8 BBz
B2: CAR D0132 CD123 MB42-E02 CD8 BBz (other)
chain: QVQLVQSGAEVKKPGASVKVSCKASGYTFTSYGISWVRQAPGQGLEWMGWISAYNGNTNYAQKLQGRVTMTTDTSTSTAYMELRSLRSDDTAVYYCARGAYYDFWSGYSWFDPWGQGTLVTVSSGGGGSGGGGSGGGGSQSVLTQPPSVSVAPGQTARIPCGGNNIGSKGVHWYQQKSGQAPVMVVYDDSDRPSGIPERFSGSNSGNTATLTISRVEAGDEADYYCQVWDSSGDLVLFGGGTKLTVLAAATTTPAPRPPTPAPTIASQPLSLRPEACRPAAGGAVHTRGLDFACDIYIWAPLAGTCGVLLLSLVITLYCKRGRKKLLYIFKQPFMRPVQTTQEEDGCSCRFPEEEEGGCELRVKFSRSADAPAYQQGQNQLYNELNLGRREEYDVLDKRRGRDPEMGGKPRRKNPQEGLYNELQKDKMAEAYSEIGMKGERRRGKGHDGLYQGLSTATKDTYDALHMQALPPR
notes: Chimeric antigen receptor on transduced human primary T cells; also called EF-1a-CD123 MB42-E02 CD8 BBz
B3: CAR D0133 CD123 MB42-E12 CD8 BBz (other)
chain: QVQLVQSGAEVKKPGASVKVSCKASGYTFTSYGISWVRQAPGQGLEWMGWISAYNGNTNYAQKLQGRVTMTTDTSTSTAYMELRSLRSDDTAVYYCARGAYYDFWSSYSWFDPWGQGTLVTVSSGGGGSGGGGSGGGGSSYVLTQPPSVSVAPGKTARITCGGNNIGSKSVHWYQQKPGQAPVLVVYDDSDRPSGIPERFSGSNSGNTATLTISRVEAGDEADYYCQVWDSSSDHVVFGGGTKLTVLAAATTTPAPRPPTPAPTIASQPLSLRPEACRPAAGGAVHTRGLDFACDIYIWAPLAGTCGVLLLSLVITLYCKRGRKKLLYIFKQPFMRPVQTTQEEDGCSCRFPEEEEGGCELRVKFSRSADAPAYQQGQNQLYNELNLGRREEYDVLDKRRGRDPEMGGKPRRKNPQEGLYNELQKDKMAEAYSEIGMKGERRRGKGHDGLYQGLSTATKDTYDALHMQALPPR
notes: Chimeric antigen receptor on transduced human primary T cells; also called EF-1a-CD123 MB42-E12 CD8 BBz
B4: CAR D0131 CD123 MB42-D03 CD8 BBz (other)
chain: QVQLVQSGAEVKKPGASVKVSCKASGYTFTSYGISWVRQAPGQGLEWMGWISAYNGNTNYAQKLQGRVTMTTDTSTSTAYMELRSLRSDDTAVYYCARGAYYDFWSSYSWFDPWGQGTLVTVSSGGGGSGGGGSGGGGSSYVLTQPPSVSVAPGKTARITCGGNSIGSKSVQWYQQKPGQAPVLVIYDDSDRPSGIPERFSGSNSGNTATLTISRVEAGDEADYYCQVWDSSSDVVFGGGTKLTVLAAATTTPAPRPPTPAPTIASQPLSLRPEACRPAAGGAVHTRGLDFACDIYIWAPLAGTCGVLLLSLVITLYCKRGRKKLLYIFKQPFMRPVQTTQEEDGCSCRFPEEEEGGCELRVKFSRSADAPAYQQGQNQLYNELNLGRREEYDVLDKRRGRDPEMGGKPRRKNPQEGLYNELQKDKMAEAYSEIGMKGERRRGKGHDGLYQGLSTATKDTYDALHMQALPPR
notes: Chimeric antigen receptor on transduced human primary T cells; also called EF-1a-CD123 MB42-D03 CD8 BBz; CAR123 D0131
B5: CAR D0134 CD123 MB44-H01 CD8 BBz (other)
chain: QVQLVQSGAEVKKPGSSVKVSCKASGGTFSSYAISWVRQAPGQGLEWMGGIIPIFGTANYAQRFQGRVTITADESTSTAYMELSSLRSEDTAVYYCARGLGTSYYYYYMDVWGKGTTVTVSSGGGGSGGGGSGGGGSQSVLTQPPSASGSPGQSVTISCTGTSSDVGGYNYVSWYQQHPGKAPKLMIYEVSNRPSGVSNRFSGSKSGNTASLTISGLQAEDEADYYCSSYTSSSTPVVFGGGTKLTVLAAATTTPAPRPPTPAPTIASQPLSLRPEACRPAAGGAVHTRGLDFACDIYIWAPLAGTCGVLLLSLVITLYCKRGRKKLLYIFKQPFMRPVQTTQEEDGCSCRFPEEEEGGCELRVKFSRSADAPAYQQGQNQLYNELNLGRREEYDVLDKRRGRDPEMGGKPRRKNPQEGLYNELQKDKMAEAYSEIGMKGERRRGKGHDGLYQGLSTATKDTYDALHMQALPPR
notes: Chimeric antigen receptor on transduced human primary T cells; also called EF-1a-CD123 MB44 -H01CD8 BBz
B6: CAR D0130 CD123 MB40-H08 CD8 BBz (other)
chain: QVQLVQSGAEVKKPGSSVKVSCKASGGTFSSYAISWVRQAPGQGLEWMGGIIPIFGTANYAQKFQGRVTITADESTSTAYMELSSLRSEDTAVYYCARNEWYSYYYYYMGVWGKGTTVTVSSGGGGSGGGGSGGGGSQSALTQPASVSGSPGQSITISCTGTSSDVGGYNYVSWYQQHPGKAPKLMIYEVSNRPSGVSNRFSGSKSGNTASLTISGLQAEDEADYYCSSYTSSSTLVVFGGGTKLTVLAAATTTPAPRPPTPAPTIASQPLSLRPEACRPAAGGAVHTRGLDFACDIYIWAPLAGTCGVLLLSLVITLYCKRGRKKLLYIFKQPFMRPVQTTQEEDGCSCRFPEEEEGGCELRVKFSRSADAPAYQQGQNQLYNELNLGRREEYDVLDKRRGRDPEMGGKPRRKNPQEGLYNELQKDKMAEAYSEIGMKGERRRGKGHDGLYQGLSTATKDTYDALHMQALPPR
notes: Chimeric antigen receptor on transduced human primary T cells; also called EF-1a-CD123 MB40-H08 CD8 BBz

The target of this experiment is T1, recombinant human CD123-Fc. Nature of the experiment: flow cytometry, CAR T cells stained with recombinant IL3R-alpha Fc-tagged, anti-Fc AF647. The procedure: Half million CAR T cells were washed two times in cold AutoMACS buffer supplemented with 0.5% bovine serum albumin (Miltenyi Biotec, Bergisch Gladbach, Germany) and stained with 2.5 ug/ml CD123-Fc peptide (Novoprotein, Summit, NJ), followed by anti Fc-AF647 conjugate (Jackson ImmunoResearch, West Grove, PA). The 7-Aminoactinomycin D staining (7-AAD, BD Biosciences, San Jose, CA) was added to exclude dead cells. Non-transduced cells (UTD) were used as a negative control. Cells were washed twice with AutoMACS buffer supplemented with 0.5% bovine serum albumin, resuspended in 200 ul staining buffer and acquired by flow cytometry. Flow cytometric analysis was performed on a MACSQuant® 10 Analyzer (Miltenyi Biotec), and data plots were generated using FlowJo software (Ashland, OR).
Lentiviral vectors encoding the CD123 CAR constructs were used for CAR transduction into human primary T cells at multiplicity of infection (MOI) of 40. CAR surface expression of transduced T cells by flow cytometry using recombinant IL3R-alpha Fc-tagged, followed by staining with anti-Fc Alexa Flour 647.
For orientation: A flow cytometer gives signals particle by particle.
B1: the binding result is “binds”.
As to B2, the binding result is given as “binds”.
The value for B3 was “binds”.
For the molecule B4, the binding result is reported as “binds”.
With B5, the binding result is reported as “binds”.
Take B6: the binding result is “binds”.
